Results from patent publication US20220259315A1 (MABQUEST, published 2022).

Tests used:
monkey Fc-PD-1 protein = target: T1, monkey Fc-PD-1 protein (monkey, UniProt Q15116 25-170 (human entry)); experiment: Biacore, monkey Fc-PD-1
T1 construct: not shown: Fc part not described
T1 chain: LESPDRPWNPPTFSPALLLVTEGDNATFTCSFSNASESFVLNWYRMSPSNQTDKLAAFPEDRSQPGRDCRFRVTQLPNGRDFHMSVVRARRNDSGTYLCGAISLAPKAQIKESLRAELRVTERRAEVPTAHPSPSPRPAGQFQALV

PD-1 M14 = target: T2, PD-1 M14; experiment: flow cytometry, HeLa cells transiently transfected with PD-1 M14, PE-labeled anti-mouse IgG secondary Ab
T2 PD-1 mutant: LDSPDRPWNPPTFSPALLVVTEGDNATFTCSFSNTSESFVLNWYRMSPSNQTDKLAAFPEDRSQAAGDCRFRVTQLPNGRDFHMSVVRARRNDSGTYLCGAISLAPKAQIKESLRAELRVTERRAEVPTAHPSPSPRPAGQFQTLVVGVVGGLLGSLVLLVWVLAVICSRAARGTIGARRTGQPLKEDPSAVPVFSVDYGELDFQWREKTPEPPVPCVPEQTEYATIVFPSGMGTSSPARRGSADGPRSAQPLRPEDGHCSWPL

B1: 137F2 (antibody, V domains shown)
VH: QVQLQQPGAELVRPGTSVKMSCKAAGYTFTNYWIGWIKQRPGHGLEWIGDIYPGGGYTNYNEKFKGKATLTADTSSSTAYMQVSSLTSEDTGIYYCARGYDFVLDRWGQGTSVTVSS
VL: DIVMSQSPSSLAVSTGEKVTMTCKSSQSLFNSETQKNYLAWYQQKPGQPPKLLIFWASTRESGVPDRFLGSGSGTDFTLTISSVQAEDLAVYYCKQSYTLRTFGGGTKLEIK
notes: also called mouse 137F2A11
In the case of B1, the Kd (monkey Fc-PD-1 protein) is reported as 2.22 nM, the koff (monkey Fc-PD-1 protein) is reported as 0.000305 s⁻¹ and the kon (monkey Fc-PD-1 protein) is reported as 138000 M⁻¹ s⁻¹. B1: binds (PD-1 M14).
